B1: full-length MTA1: in vitro translated full-length MTA1; human MTA1 Uniprot Q13330 (protein, UniProt Q13330 1-715, looked up)
chain: MAANMYRVGDYVYFENSSSNPYLIRRIEELNKTANGNVEAKVVCFYRRRDISSTLIALADKHATLSVCYKAGPGADNGEEGEIEEEMENPEMVDLPEKLKHQLRHRELFLSRQLESLPATHIRGKCSVTLLNETESLKSYLEREDFFFYSLVYDPQQKTLLADKGEIRVGNRYQADITDLLKEGEEDGRDQSRLETQVWEAHNPLTDKQIDQFLVVARSVGTFARALDCSSSVRQPSLHMSAAAASRDITLFHAMDTLHKNIYDISKAISALVPQGGPVLCRDEMEEWSASEANLFEEALEKYGKDFTDIQQDFLPWKSLTSIIEYYYMWKTTDRYVQQKRLKAAEAESKLKQVYIPNYNKPNPNQISVNNVKAGVVNGTGAPGQSPGAGRACESCYTTQSYQWYSWGPPNMQCRLCASCWTYWKKYGGLKMPTRLDGERPGPNRSNMSPHGLPARSSGSPKFAMKTRQAFYLHTTKLTRIARRLCREILRPWHAARHPYLPINSAAIKAECTARLPEASQSPLVLKQAVRKPLEAVLRYLETHPRPPKPDPVKSVSSVLSSLTPAKVAPVINNGSPTILGKRSYEQHNGVDGNMKKRLLMPSRGLANHGQARHMGPSRNLLLNGKSYPTKVRLIRGGSLPPVKRRRMNWIDAPDDVFYMATEETRKIRKLLSSSETKRAARRPYKPIALRQSQALPPRPPPPAPVNDEPIVIED
modifications: full-length
notes: in vitro translated full-length MTA1; human MTA1 Uniprot Q13330
B2: MTA-like: known subunit of the D. melanogaster NuRD complex (protein)
chain: MATNMYRVGDYVYVETTPNSPYLIRRIEELNKNQTGNVEAKVMCFYRRRDLPNPLVQLADKHQLATAEDSPLATKLKKTWLRTPVSEEQAAQAVLDPSIAALDEERTSPTQTSGGGGSATGNSGSNSSGTSNNNSSSTAIGGGAGGSGGAGGDAEKGEALTSKQRYQIKHRELFLSRQVESIPATQIRGKCSVTLLNETESLQSYLNKDDTFFYCLVFDPNQKTLLADKGEIRVGSRYQCDIPAKLKDTATDDRKLEELESLVWTPEHSLTDRKIDQFLVVSRSIGTFARALDCSSSVKQPSLHMSAAAASRDITLFHAMNILHKHEYSIEESMSSLVPSTGPVLCRDEIEDWSASEANLFEEALEKYGKDFNDIRQDFLPWKTLKQIIEYYYMWKTTDRYVQQKRVKAVEAELKLKQVYIPQYNNNGKGNGTSTKAGGGIYNGTTNGSTDLSSNGKPCESCGTTKSSQWNSVSSGHSTSRLCLSCWEYWRRYGSMKSATKGDAGEGDAKKKSSSAASTPTATLAGLATTPTAVVDLNDDEKISDLTNRQLHRCSIVNCGKEFKLKTHLARHYAQAHGIAISSGSPRPIMKTRTAFYLHTNPMTRVARAICRSIVKPKKAARQSAYAINAMLVKQEFTNRISGKSQAEIKKLLLLKPKDRGSVTKIANRLGAPGSGPHEWLVLTPKDKMPLPAVVSFPKPPKAPDGSLVYDRVPNKSPDVVAVPADKELTIIPTQATSTIRKRAHEDQQLNGTEVTIVPSGPPAKRPNKDPMPSHCPSPEQFAAMMAASGQPLSRHHLNGKQKIAQMARGGNGRKQVISWMDAPDDVYFRANDTHKKTRKILSAVDLRRAARKPWRTLPIKPAAPEPSSRPIESQIVILD
B3: Rpd3: known subunit of the D. melanogaster NuRD complex, Rpd3 (dHDAC) (protein)
chain: MQSHSKKRVCYYYDSDIGNYYYGQGHPMKPHRIRMTHNLLLNYGLYRKMEIYRPHKATADEMTKFHSDEYVRFLRSIRPDNMSEYNKQMQRFNVGEDCPVFDGLYEFCQLSAGGSVAAAVKLNKQASEICINWGGGLHHAKKSEASGFCYVNDIVLGILELLKYHQRVLYIDIDVHHGDGVEEAFYTTDRVMTVSFHKYGEYFPGTGDLRDIGAGKGKYYAVNIPLRDGMDDDAYESIFVPIISKVMETFQPAAVVLQCGADSLTGDRLGCFNLTVKGHGKCVEFVKKYNLPFLMVGGGGYTIRNVSRCWTYETSVALAVEIANELPYNDYFEYFGPDFKLHISPSNMTNQNTSEYLEKIKNRLFENLRMLPHAPGVQIQAIPEDAINDESDDEDKVDKDDRLPQSDKDKRIVPENEYSDSEDEGEGGRRDNRSYKGQRKRPRLDKDTNSNKASSETSSEIKDEKEKGDGADGEESTASNTNSNNNSNNKSDNDAGATANAGSGSGSGSGAGAKGAKENNI

Assays:
[1] = system: RbAp48 binding to GST-H4-(1–48); assay: Competition pulldown: GST-H4-(1–48) pulls down RbAp48 in absence and presence of full-length MTA1; design: species or system human; conditions: GST-H4-(1–48) on glutathione beads, in vitro translated 35S-labeled RbAp48, absence and presence of full-length MTA1
Experimental: The structural data provide clear evidence that histone H4 and MTA1 bind mutually exclusively to RbAp48. […] Competition-binding experiments were performed to assess whether full-length MTA1 might inhibit the interaction of RbAp48 with H3 or FOG1 peptides and to confirm that H4 and MTA1 bind mutually exclusively to RbAp48. GST-H4-(1–48) was expressed in bacteria, immobilized onto glutathione beads, and used to pull down RbAp48 in the absence and presence of full-length MTA1 (Fig. 7A). In a complementary experiment (Fig. 7B), in vitro translated FLAG-RbAp48 was immobilized on anti-FLAG beads and used to pull down MTA1 in the absence and presence of histone H4-(1–48).
FIGURE 7. […] A, pulldown showing the binding of in vitro translated ^35S-labeled RbAp48 to GST-histone H4-(1–48) (immobilized on glutathione beads) in the absence and presence of in vitro translated MTA1. B, pulldown showing the binding of in vitro translated ^35S-labeled MTA1 to FLAG-RbAp48 (immobilized on anti-FLAG beads) in the absence and presence of histone H4-(1–48). C, pulldown assays showing the effect of adding increasing amounts of FOG1-(1–15) peptide to a complex formed between in vitro translated ^35S-labeled FLAG-RbAp48 (immobilized on anti-FLAG beads) and in vitro translated ^35S-labeled full-length MTA1 or MTA1-(530–715). […]

[2] = system: Nurf55 MUT; assay: Protein A affinity purification with mutant Nurf55 bait, mass spectrometry; format: cell-based, D. melanogaster (Dmel-2 cells); conditions: for Number of peptides identified, Nurf55 MUT: IgG beads, Dmel-2 cells, mutant E361Q, D362N, E364Q, D365N, L35Y
Description: (§1) Full-length Nurf55 (also known as p55 and CAF1) is the D. melanogaster homolog of RbAp46/p48. It was PCR-amplified and cloned into the pDONR221 vector via the BP (recombination and insertion of the att B sequence into the att P recombination site) reaction using standard Gateway Technology (Invitrogen) protocols. Five residues in this plasmid were mutated (L35Y, E361Q, D362N, E364Q, D365N) to create pDONR-Nurf55mut using the QuikChange Lightning Site-directed Mutagenesis kit (Agilent Technologies). The resulting wild-type and mutant clones were verified by sequencing. Primer sequences for the constructs are available on request. The Nurf55 genes were then transferred into destination vectors for the inducible expression of protein A- or GFP-tagged fusion proteins by the LR (insertion of sequences containing att L sites into destination att R sites) reaction according to the manufacturer's instructions.
(§2) D. melanogaster Dmel-2 cell lines stably expressing either tagged wild-type or mutant Nurf55 (containing the L35Y, E361Q, D362N, E364Q, and D365N mutations) were established. Affinity purification of protein A- and GFP-tagged bait and interacting proteins followed by mass spectrometry identification was carried out as previously reported ([39][–][41]).
(§3) Cell lines stably expressing protein A-tagged fusion proteins of either wild-type Nurf55 or the mutant (Nurf55mut) were generated. RbAp46 shares >90 and 85% sequence identity with RbAp48 and NuRF55, respectively. […] Cellular proteins that interact with protein A-tagged Nurf55/Nurf55mut were then isolated by affinity purification on IgG beads and identified by mass spectrometry as described previously ([39], [40]).

[3] = system: Nurf55 MUT; assay: GFP affinity purification with mutant Nurf55 bait, mass spectrometry; format: cell-based, D. melanogaster (Dmel-2 cells); conditions: anti-GFP nanobody beads, Dmel-2 cells, triplicate, lowest number of unique peptides listed, mutant E361Q, D362N, E364Q, D365N, L35Y
Description: as §1, §2

[4] = system: Nurf55 WT; assay: Protein A affinity purification with wild-type Nurf55 bait, mass spectrometry; format: cell-based, D. melanogaster (Dmel-2 cells); conditions: for Number of peptides identified, Nurf55 WT: IgG beads, Dmel-2 cells; for interaction with Nurf55: wild-type Nurf55
Description: as §1, §2, §3

[5] = system: Nurf55 WT; assay: GFP affinity purification with wild-type Nurf55 bait, mass spectrometry; format: cell-based, D. melanogaster (Dmel-2 cells); conditions: anti-GFP nanobody beads, Dmel-2 cells, triplicate, lowest number of unique peptides listed
Description: as §1, §2

| Molecule | competition of MTA1 with histone H4 for RbAp48 [1] | Number of peptides identified, Nurf55 MUT [2] | interaction with Nurf55mut [2] | Number of peptides identified, Nurf55 MUT [3] | Number of peptides identified, Nurf55 WT [4] | interaction with Nurf55 [4] | Number of peptides identified, Nurf55 WT [5] |
| --- | --- | --- | --- | --- | --- | --- | --- |
| B1 | compete for the same binding surface on RbAp48 |  |  |  |  |  |  |
| B2 |  | 0 | not observed | 6 | 57 | pulled down by Nurf55 | 79 |
| B3 |  | 0 | not observed | 9 | 8 | pulled down by Nurf55 | 36 |
